Test [1] addresses FZD7 protein on human cancer cells (OVCAR-4, MDA-MB-231, primary tumour tissue) (human, UniProt O75084 33-574). Nature of the test: cell-based or functional assay.
The target in a further test is T1, mouse Fzd7 P188L (mouse, UniProt Q61090 33-572).
T1 construct: also called MEF-Fzd7P188L
Kind of test: reactivity of Fab with mouse Fzd7 point mutants (FIG. 4C-D).

B1: FZD7-Fab-1791 (Fab)
light: DIVMTQSPKSMSMSVGERVTLRCKASENVLNYVSWYQQKPEQSPKLLIYGASNRYTGVPDRFTGSGSATDFTLTISSVQAEDLADYHCGQSYRYPTFGAGTKLELKRADAAPTVSIFPPSSEQLTSGGASVVCFLNNFYPKDINVKWKIDGSERQNGVLNSWTDQDSKDSTYSMSSTLTLTKDEYERHNSYTCEATHKTSTSPIVKSFNRNESYPYDVPDYAS
heavy: EVQPVESGGGLVQPKGSLKLSCAASGFTFNTYAMHWVRQAPGKGLEWVARIRSKSNNYAKNYDDSVKDRFTISRDDSQSMLYLQMNNLKTEDTAMYYCVRENYGGRFDYWGQGTTLTVSSAKTTPPSVYPLAPGSAAQTNSMVTLGCLVKGYFPEPVTVTWNSGSLSSGVHTFPAVLQSDLYTLSSSVTVPSSTWPSETVTCNVAHPASSTKVDKKIVPRDSHHHHHHH
Consider B1, for which the “fold decrease in TOP-Flash Wnt reporter (luciferase) activity in MDA-MB-231 cells treated with Wnt3a (0-5 nM), FZD7-Fab-1791 at 200 nM” value in test [1] was around 3 fold. Also, the binding result with mouse Fzd7 P188L is on record as “binds”.

B2: FZD7-Fab-1291 (Fab)
light: DVVMSQSPSSLAVSVGEKVTMSCKSSQSLLYSSNQKNYLAWYQQKPGQSPKLLIYWASTRESGVPDRFTGSGSGTDFTLTISSVKAKDLAVYYCQQYYSYPTFGGGTKLEIKRADAAPTVSIFPPSSEQLTSGGASVVCFLNNFYPKDINVKWKIDGSERQNGVLNSWTDQDSKDSTYSMSSTLTLTKDEYERHNSYTCEATHKTSTSPIVKSFNRNESYPYDVPDYAS
heavy: EVQLVESGGGLVKPGGSLKLSCAASGFTFSSYAMSWVRQTPEKRLEWVATISDGGSYTRYPDKLKGRFTISRDNAKNNLYLQMSHLKSEDTAMYYCARVGGRRDYFDYWGQGTTLTVSSAKTTPPSVYPLAPGSAAQTNSMVTLGCLVKGYFPEPVTVTWNSGSLSSGVHTFPAVLQSDLYTLSSSVTVPSSTWPSETVTCNVAHPASSTKVDKKIVPRDCHHHHHHH
notes: The entries as printed end in tag-like residues
As to B2, the binding result with mouse Fzd7 P188L is listed as “binds”.

Source of the values: US20180186885A1 (University of California, published 2018).
